In the supplement of paper PMC11246515:
± gives the standard deviation of the averaged measurements.

Experiment: total protein half-life in vivo (active degradation + dilution); higher = more stable protein
[1] = E. coli NCM3722 delta-clpP delta-lon delta-hslV, growth: N-lim chemostat, doubling time 6 h
[2] = E. coli NCM3722 delta-clpP, growth: N-lim chemostat, doubling time 6 h
[3] = wild type E. coli NCM3722, growth: C-lim chemostat, doubling time 3 h
[4] = wild type E. coli NCM3722, growth: C-lim chemostat, doubling time 6 h
[5] = wild type E. coli NCM3722, growth: C-lim chemostat, doubling time 12 h
[6] = wild type E. coli NCM3722, growth: N-lim chemostat, doubling time 6 h
[7] = wild type E. coli NCM3722, growth: N-lim chemostat, doubling time 12 h
[8] = wild type E. coli NCM3722, growth: P-lim chemostat, doubling time 12 h
[9] = E. coli NCM3722 delta-hslV, growth: N-lim chemostat, doubling time 6 h
[10] = E. coli NCM3722 delta-lon, growth: N-lim chemostat, doubling time 6 h
[11] = E. coli NCM3722 delta-smpB, growth: N-lim chemostat, doubling time 6 h
[12] = wild type E. coli NCM3722, growth: P-lim chemostat, doubling time 6 h

Row | Sequence | total protein half-life in vivo [1] [h] | total protein half-life in vivo [2] [h] | total protein half-life in vivo [3] [h] | total protein half-life in vivo [4] [h] | total protein half-life in vivo [5] [h] | total protein half-life in vivo [6] [h] | total protein half-life in vivo [7] [h] | total protein half-life in vivo [8] [h] | total protein half-life in vivo [9] [h] | total protein half-life in vivo [10] [h] | total protein half-life in vivo [11] [h] | total protein half-life in vivo [12] [h]
1 | MNALTAVQNNAVDSGQDYSGFTLTPSAQSPRLLELTFTEQTTKQFLEQVAEWPVQALEYKSFLRFRVAKILDDLCANQLQPLLLKTLLNRAEGALLINAVGVDDVKQADEMVKLATAVAHLIGRSNFDAMSGQYYARFVVKNVDNSDSYLRQPHRVMELHNDGTYVEEITDYVLMMKIDEQNMQGGNSLLLHLDDWEHLDNYFRHPLARRPMRFAAPPSKNVSKDVFHPVFDVDQQGRPVMRYIDQFVQPKDFEEGVWLSELSDAIETSKGILSVPVPVGKFLLINNLFWLHGRDRFTPHPDLRRELMRQRGYFAYASNHYQTHQ | 5.49 ± 0.24 | 1.73 ± 0.11 | 0.794 ± 0.23 | 1.18 ± 0.23 | 0.791 ± 0.35 | 1.3 | 1.1 ± 0.12 | 1.17 ± 0.72 | – | – | – | –
2 | MNDAVITLNGLEKRFPGMDKPAVAPLDCTIHAGYVTGLVGPDGAGKTTLMRMLAGLLKPDSGSATVIGFDPIKNDGALHAVLGYMPQKFGLYEDLTVMENLNLYADLRSVTGEARKQTFARLLEFTSLGPFTGRLAGKLSGGMKQKLGLACTLVGEPKVLLLDEPGVGVDPISRRELWQMVHELAGEGMLILWSTSYLDEAEQCRDVLLMNEGELLYQGEPKALTQTMAGRSFLMTSPHEGNRKLLQRALKLPQVSDGMIQGKSVRLILKKEATPDDIRHADGMPEININETTPRFEDAFIDLLGGAGTSESPLGAILHTVEGTPGETVIEAKELTKKFGDFAATDHVNFAVKRGEIFGLLGPNGAGKSTTFKMMCGLLVPTSGQALVLGMDLKESSGKARQHLGYMAQKFSLYGNLTVEQNLRFFSGVYGLRGRAQNEKISRMSEAFGLKSIASHATDELPLGFKQRLALACSLMHEPDILFLDEPTSGVDPLTRREFWLHINSMVEKGVTVMVTTHFMDEAEYCDRIGLVYRGKLIASGTPDDLKAQSANDEQPDPTMEQAFIQLIHDWDKEHSNE [P0A9U1] | 5.78 ± 0.23 | 6.03 ± 0.77 | 3.32 ± 0.15 | – | 11.8 ± 2.2 | 6.05 ± 0.092 | 12.6 ± 1.7 | 12.3 ± 0.47 | 6.28 ± 0.41 | 6.03 ± 0.23 | 5.83 ± 0.5 | 6.15 ± 0.14
3 | MNDYKMTPGERRATWGLGTVFSLRMLGMFMVLPVLTTYGMALQGASEALIGIAIGIYGLTQAVFQIPFGLLSDRIGRKPLIVGGLAVFAAGSVIAALSDSIWGIILGRALQGSGAIAAAVMALLSDLTREQNRTKAMAFIGVSFGITFAIAMVLGPIITHKLGLHALFWMIAILATTGIALTIWVVPNSSTHVLNRESGMVKGSFSKVLAEPRLLKLNFGIMCLHILLMSTFVALPGQLADAGFPAAEHWKVYLATMLIAFGSVVPFIIYAEVKRKMKQVFVFCVGLIVVAEIVLWNAQTQFWQLVVGVQLFFVAFNLMEALLPSLISKESPAGYKGTAMGVYSTSQFLGVAIGGSLGGWINGMFDGQGVFLAGAMLAAVWLTVASTMKEPPYVSSLRIEIPANIAANEALKVRLLETEGIKEVLIAEEEHSAYVKIDSKVTNRFEIEQAIRQA | 5.51 | 5.38 ± 0.66 | 3.17 ± 0.88 | 5.45 ± 0.11 | 11.2 ± 1.9 | 5.15 ± 0.25 | 10.1 ± 0.3 | 8.82 ± 0.54 | – | 5.73 ± 0.96 | 5.16 ± 0.38 | 5.42 ± 0.72
4 | MNEFPVVLVINCGSSSIKFSVLDASDCEVLMSGIADGINSENAFLSVNGGEPAPLAHHSYEGALKAIAFELEKRNLNDSVALIGHRIAHGGSIFTESAIITDEVIDNIRRVSPLAPLHNYANLSGIESAQQLFPGVTQVAVFDTSFHQTMAPEAYLYGLPWKYYEELGVRRYGFHGTSHRYVSQRAHSLLNLAEDDSGLVVAHLGNGASICAVRNGQSVDTSMGMTPLEGLMMGTRSGDVDFGAMSWVASQTNQSLGDLERVVNKESGLLGISGLSSDLRVLEKAWHEGHERAQLAIKTFVHRIARHIAGHAASLRRLDGIIFTGGIGENSSLIRRLVMEHLAVLGLEIDTEMNNRSNSCGERIVSSENARVICAVIPTNEEKMIALDAIHLGKVNAPAEFA | 3.9 | – | – | – | – | – | – | – | – | – | – | –
5 | MNEFSILCRVLGSLYYRQPQDPLLVPLFTLIREGKLAANWPLEQDELLTRLQKSCDMTQVSADYNALFIGDECAVPPYRSAWVEGATEAEVRAFLSERGMPLADTPADHIGTLLLAASWLEDQSTEDESEALETLFSEYLLPWCGAFLGKVEAHATTPFWRTMAPLTRDAISAMWDELEEDSEE | 5.33 ± 0.97 | 5.83 ± 1.6 | 3.342 ± 0.021 | 6.25 ± 0.39 | – | 4.99 ± 0.71 | 9.91 ± 0.97 | – | 5.14 ± 0.17 | 5.97 ± 1.5 | 5.24 ± 0.65 | –
6 | MNEHHQPFEEIKLINANGAEQWSARQLGKLLGYSEYRHFIPVLTRAKEACENSGHTIDDHFEEILDMVKIGSNAKRALKDIVLSRYACYLVVQNGDPAKPVIAAGQTYFAIQTRRQELADDEAFKQLREDEKRLFLRNELKEHNKQLVEAAQQAGVATATDFAIFQNHGYQGLYGGLDQKAIHQRKGLKKNQKILDHMGSTELAANLFRATQTEEKLKRDGVNSKQQANTTHFDVGRKVRQTIQELGGTMPEELPTPQVSIKQLENSVKITEKK | – | – | 2.12 | 3.02 | 5.87 | – | – | – | – | – | – | –
7 | MNEQSQAKSPEALRAMVAGTLANFQHPTLKHNLTTLKALHHVAWMDDTLHVELVMPFVWHSAFEELKEQCSAELLRITGAKAIDWKLSHNIATLKRVKNQPGINGVKNIIAVSSGKGGVGKSSTAVNLALALAAEGAKVGILDADIYGPSIPTMLGAENQRPTSPDGTHMAPIMSHGLATNSIGYLVTDDNAMVWRGPMASKALMQMLQETLWPDLDYLVLDMPPGTGDIQLTLAQNIPVTGAVVVTTPQDIALIDAKKGIVMFEKVEVPVLGIVENMSVHICSNCGHHEPIFGTGGAEKLAEKYHTQLLGQMPLHISLREDLDKGTPTVISRPESEFTAIYRQLADRVAAQLYWQGEVIPGEISFRAV [P0AF08] | 5.1 ± 1 | 4.454 ± 0.02 | 2.87 ± 0.2 | 5.22 ± 0.23 | 9.46 ± 1.4 | 3.71 ± 0.21 | 5.9098 ± 0.00063 | 9.96 ± 0.64 | 3.96 ± 0.12 | 4.15 ± 0.34 | 3.876 ± 0.013 | 5.19 ± 0.43
